Three molecules from patent US6576455B1, “Structure-based designed herbicide resistant products” (priority 1995, dated 2003) can be followed below.

In one data set the target is T1, Maize AHAS (Zea mays, UniProt Q41769).
T1 construct: residue #2 corresponds to the putative amino terminus of the mature protein, i.e., after removal of a chloroplast targeting peptide; GST (glutathione S-transferase, pGEX-2T) (N, cleaved yes); made in house; host or cells: E. coli (DH5α), pGEX-2T vector pAC751
T1 sequence (Q41769 40-638): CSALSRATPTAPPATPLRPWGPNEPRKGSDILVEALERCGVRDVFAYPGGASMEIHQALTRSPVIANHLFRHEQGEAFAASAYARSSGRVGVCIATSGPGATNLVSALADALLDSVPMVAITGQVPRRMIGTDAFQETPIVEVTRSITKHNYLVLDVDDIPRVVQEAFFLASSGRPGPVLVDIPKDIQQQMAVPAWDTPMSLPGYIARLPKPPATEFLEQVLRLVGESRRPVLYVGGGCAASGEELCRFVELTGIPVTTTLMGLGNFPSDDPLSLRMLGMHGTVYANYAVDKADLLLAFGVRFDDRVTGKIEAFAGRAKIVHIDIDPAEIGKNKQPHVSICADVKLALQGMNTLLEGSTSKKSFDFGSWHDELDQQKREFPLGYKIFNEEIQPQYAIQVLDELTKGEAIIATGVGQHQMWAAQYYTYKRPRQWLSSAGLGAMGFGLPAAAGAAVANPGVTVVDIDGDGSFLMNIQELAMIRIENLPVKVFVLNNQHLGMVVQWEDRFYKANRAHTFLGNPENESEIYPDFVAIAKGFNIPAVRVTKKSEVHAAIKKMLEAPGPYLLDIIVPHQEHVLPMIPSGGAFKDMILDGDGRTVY
The experiment in a line: Enzymatic activity and cofactor dependence of purified maize AHAS expressed from pAC751. In kind it is biochemical. On the procedure: E. coli (DH5α) cells transformed with the pGEX-2T vector containing either the maize wild type AHAS gene (vector designation pAC751), the Arabidopsis Ser653Asn mutant, or the Arabidopsis Ile401Phe mutant were grown overnight in LB broth containing 50 μg/mL ampicillin. The overnight culture of E. coli was diluted 1:10 in 1 L LB, 50 μg/mL ampicillin, and 0.1% v/v antifoam A. The culture was incubated at 37° C. with shaking until the OD600 reached approximately 0.8. Isopropylthiogalactose (IPTG) was added to a final concentration of 1 mM and the culture was incubated for 3 more hours.
Cells were harvested by centrifugation at 8,670×g for 10 minutes in a JA-10 rotor and resuspended in 1/100th of the original culture volume in MTPBS (16 mM Na2HPO4, 4 mM NaH2PO4, 150 mM NaCl, pH 7.3). Triton X-100 and lysozyme were added to a final concentration of 1% v/v and 100 μg/mL, respectively. Cells were incubated at 30° C. for 15 minutes cooled to 4° C. on ice, and were lysed by sonication for 10 seconds at level 7 with a Branson Sonifier Cell Disrupter equipped with a microtip probe. The cell free extract was centrifuged at 35,000×g for 10 min. at 4° C. The supernatant was decanted and the centrifugation step was repeated.
Purification of expressed fusion proteins was performed as modified from Smith and Johnson (Gene 67:31-40, 1988). […]

Data set [1] is classed as physicochemical, Zea mays. On the procedure:
The fusion protein was digested overnight at room temperature. Digested samples were dialyzed against MTPBS and passed twice through a glutathione-agarose column equilibrated in MTPBS to remove the released glutathione transferase protein. […] The concentrated sample was loaded onto a 1.5×95 cm Sephacryl S-100 gel filtration column equilibrated in gel filtration buffer (50 mM HEPES, 150 mM NaCl, pH 7.0). Two mL fractions were collected at a flow rate of 0.14 mL/min. Enzyme stability was tested by storage of the enzyme at 4° C. in gel filtration buffer with the addition of 0.02% sodium azide and in the presence or absence of 2 mM thiamine pyrophosphate and 100 μM flavin adenine dinucleotide (FAD).
Maize AHAS expressed and purified from pAC751 as described in Example 3 above is active in the conversion of pyruvate to acetolactate. Full AHAS activity is dependent on the presence of the cofactors FAD and TPP in the assay medium. […] The activity of the purified enzyme with TPP only, or with no cofactors, was less than 1% of the activity detected in the presence of both TPP and FAD. Normally, AHAS present in crude plant extracts is very labile, particularly in the absence of substrate and cofactors.

Data set [2] concerns Arabidopsis AHAS protein. As to conditions: increasing concentrations of imazethapyr, 5% DMSO; FIGS. 7, 9, 10, 11. On the procedure: (§1) The enzymatic properties of wild-type and variant AHAS produced in E. coli were measured by a modification of the method of Singh et al. (Anal. Biochem […]:173-179, 1988) as follows:
(§2) A reaction mixture containing 1× AHAS assay buffer (50 mM HEPES pH 7.0, 100 mM pyruvate, 10 mM MgCl2, 1 mM thiamine pyrophosphate (TPP), and 50 μM flavin adenine dinucleotide (FAD)) was obtained either by dilution of enzyme in 2× assay buffer or by addition of concentrated enzyme to 1× AHAS assay buffer. All assays containing imazethapyr and associated controls contained a final concentration of 5% DMSO due to addition of imazethapyr to assay mixtures as a 50% DMSO solution. Assays were performed in a final volume of 250 μL at 37° C. in microtiter plates. After allowing the reaction to proceed for 60 minutes, acetolactate accumulation was measured […] as described by Singh et al., Anal. Biochem 171:173-179, 1988.

The subject of a further data set is tobacco plants. Put plainly: Spraying of transformed tobacco plants with imazethapyr. In kind it is in vivo, Nicotiana tabacum cv. Wisconsin 38. Particulars: twice the field rate (100 g/ha) of imazethapyr. On the procedure:
Leaf disc transformation of Nicotiana tabacum cv. Wisconsin 38 was performed as described by Horsch et al. (Science, 227: 1229-1231, 1985) with slight modifications. Leaf discs were cut from plants grown under sterile conditions and co-cultivated upsidedown in Murashige Skoog media (Sigma Chemical Co., St. Louis, Mo.) for 2-3 days at 25° C. in darkness with Agrobacterium tumefaciens strains containing plasmids pJK002, pJK003, or pJK004. The discs were blotted dry and transferred to regeneration Murashige Skoog medium with B5 vitamins containing 1 mg/L benzyladenine and 0.1 mg/l 1-Napthyl Acetic Acid, 100 mg/L kanamycin, and 500 mg/L cefotaxime (all obtained from Sigma).
Kanamycin-resistant tobacco shoots were transferred to medium containing a 0.25 μM imazethapyr.

Data set [3] has as its system Arabidopsis AHAS protein. Particulars: no herbicide; for Specific Activity: b134 expresses specific activity as units/mg pure AHAS, 1 unit = 1 μmole acetolactate produced/hour; for % Catalytic Activity as Compared to Wild Type: relative to wild-type AHAS. The protocol:
(a) specific or catalytic activity for conversion of pyruvate to acetolactate (expressed as units/mg pure AHAS, wherein a unit of activity is defined as 1 μmole acetolactate produced/hour), or for condensation of pyruvate and 2-ketobutyrate to form acetohydroxybutyrate (expressed as units/mg pure AHAS, wherein a unit of activity is defined as 1μ mole acetohydroxybutyrate produced/hr.;
as §1, §2

B1: Maize AHAS: wild type maize AHAS expressed from pAC751 in E. coli and purified, 65 kD (SEQ ID NO:1) (protein)
chain: GSAASPAMPMAPPATPLRPWGPTDPRKGADILVESLERCGVRDVFAYPGGASMEIHQALTRSPVIANHLFRHEQGEAFAASGYARSSGRVGVCIATSGPGATNLVSALADALLDSVPMVAITGQVPRRMIGTDAFQETPIVEVTRSITKHNYLVLDVDDIPRVVQEAFFLASSGRPGPVLVDIPKDIQQQMAVPVWDKPMSLPGYIARLPKPPATELLEQVLRLVGESRRPVLYVGGGCARSGEELRRFVELTGIPVTTTLMGLGNFPSDDPLSLRMLGMHGTVYANYAVDKADLLLALGVRFDDRVTGKIEAFASRAKIVHVDIDPAEIGKNKQPHVSICADVKLALQGMNALLEGSTSKKSFDFGSWNDELDQQKREFPLGYKYSNEEIQPQYAIQVLDELTKGEAIIGTGVGQHQMWAAQYYTYKRPRQWLSSAGLGAMGFGLPAAAGASVANPGVTVVDIDGDGSFLMNVQELAMIRIENLPVKVFVLNNQHLGMVVQWEDRFYKANRAHTYLGNPENESEIYPDFVTIAKGFNIPAVRVTKKNEVRAAIKKMLETPGPYLLDIIVPHQEHVLPMIPSGGAFKDMILDGDGRTVY
modifications: Zea Mays
Turning to B1, the “AHAS activity when only FAD was added to the assay medium” value with Maize AHAS (FAD only, no TPP) is listed as “No activity was detected”. In addition, the “activity with TPP only, or with no cofactors, relative to activity in the presence of both TPP and FAD” value in the data set with Maize AHAS (TPP only or no cofactors) is on record as “less than 1%”. For the same molecule, the “degradation products in SDS-PAGE gels after storage” value in data set [1] is given as “no degradation products were visible”. Besides, the “catalytic activity after storage” value in data set [1] (one month at 4° C. in 50 mm HEPES pH 7.0, 150 mM NaCl, 0.02% NaN3, presence or absence of FAD and TPP) is “no lose in catalytic activity”.

B2: Met124Ile: Arabidopsis AHAS variant (and gene) with Met124Ile mutation, corresponding to maize Met53Ile; vector pJK002 (protein, UniProt P17597 56-670, looked up, variant M124I)
Acetolactate synthase, …: SSSPSSISAVLNTTTNVTTTPSPTKPTKPETFISRFAPDQPRKGADILVEALERQGVETVFAYPGGASIEIHQALTRSSSIRNVLPRHEQGGVFAAEGYARSSGKPGICIATSGPGATNLVSGLADALLDSVPLVAITGQVPRRMIGTDAFQETPIVEVTRSITKHNYLVMDVEDIPRIIEEAFFLATSGRPGPVLVDVPKDIQQQLAIPNWEQAMRLPGYMSRMPKPPEDSHLEQIVRLISESKKPVLYVGGGCLNSSDELGRFVELTGIPVASTLMGLGSYPCDDELSLHMLGMHGTVYANYAVEHSDLLLAFGVRFDDRVTGKLEAFASRAKIVHIDIDSAEIGKNKTPHVSVCGDVKLALQGMNKVLENRAEELKLDFGVWRNELNVQKQKFPLSFKTFGEAIPPQYAIKVLDELTDGKAIISTGVGQHQMWAAQFYNYKKPRQWLSSGGLGAMGFGLPAAIGASVANPDAIVVDIDGDGSFIMNVQELATIRVENLPVKVLLLNNQHLGMVMQWEDRFYKANRAHTFLGDPAQEDEIFPNMLLFAAACGIPAARVTKKADLREAIQTMLDTPGPYLLDVICPHQEHVLPMIPSGGTFNDVITEGDGRIKY
In the case of B2, in the data set with Arabidopsis AHAS protein [2], the “resistance of enzymatic activity to imazethapyr (PURSUIT)” value was “significant level of imidazolinone resistance”. Moreover, the “resistance of transformed tobacco plants to spraying with imazethapyr” value in the data set with tobacco plants is “resistant”. Further, in the data set on Arabidopsis AHAS protein [3], the “Specific Activity” value is on record as 102 and the “% Catalytic Activity as Compared to Wild Type” value was found to be 102%.

B3: Met124His: Arabidopsis AHAS variant (and gene) with Met124His mutation, corresponding to maize Met53His; vector pJK003 (protein, UniProt P17597 56-670, looked up, variant M124H)
Acetolactate synthase, …: SSSPSSISAVLNTTTNVTTTPSPTKPTKPETFISRFAPDQPRKGADILVEALERQGVETVFAYPGGASHEIHQALTRSSSIRNVLPRHEQGGVFAAEGYARSSGKPGICIATSGPGATNLVSGLADALLDSVPLVAITGQVPRRMIGTDAFQETPIVEVTRSITKHNYLVMDVEDIPRIIEEAFFLATSGRPGPVLVDVPKDIQQQLAIPNWEQAMRLPGYMSRMPKPPEDSHLEQIVRLISESKKPVLYVGGGCLNSSDELGRFVELTGIPVASTLMGLGSYPCDDELSLHMLGMHGTVYANYAVEHSDLLLAFGVRFDDRVTGKLEAFASRAKIVHIDIDSAEIGKNKTPHVSVCGDVKLALQGMNKVLENRAEELKLDFGVWRNELNVQKQKFPLSFKTFGEAIPPQYAIKVLDELTDGKAIISTGVGQHQMWAAQFYNYKKPRQWLSSGGLGAMGFGLPAAIGASVANPDAIVVDIDGDGSFIMNVQELATIRVENLPVKVLLLNNQHLGMVMQWEDRFYKANRAHTFLGDPAQEDEIFPNMLLFAAACGIPAARVTKKADLREAIQTMLDTPGPYLLDVICPHQEHVLPMIPSGGTFNDVITEGDGRIKY
In the case of B3, the “resistance of enzymatic activity to imazethapyr (PURSUIT)” value in the data set with Arabidopsis AHAS protein [2] is reported as “high degree of resistance”. Further, in the data set on Arabidopsis AHAS protein [3], the “Specific Activity” value amounted to 42.5 and the “% Catalytic Activity as Compared to Wild Type” value was 42.6%.
